Measurements: patent US11965039B2, “Compstatin analogues and their medical uses” (priority 2018, dated 2024)
Positions of bridges follow the written chain, without caps; N, C: chain ends. Non-standard residues stand in square brackets, D forms with d. Sar = CNCC(=O)O

Experiments:
[1] = molecular target: T1, Human C3 (Complement tech cat #A113c) (human, UniProt P01024 23-1663); test: cell-based or functional assay
[2] = molecular target: T1, Human C3 (Complement tech cat #A113c); test: cell-based or functional assay; remark: listed apart in the source
[3] = molecular target: T1, Human C3 (Complement tech cat #A113c); test: SPR (Biacore T200), human C3 immobilised, peptide injected, 1:1 fit
In short: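 Human C3 amine-coupled on CM5 chips to about 3000 RU. Multi-cycle runs on Biacore T200 at 25° C: peptides at 6-8 rising concentrations, 60-120 s at 30 µL/min in 10 mM Tris pH 7.4, 150 mM NaCl, 0.05% Tween20, dissociation up to 10 min; 3 M MgCl2 regeneration. Kd derived.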

T1 sequence (P01024 23-1663 limits assumed): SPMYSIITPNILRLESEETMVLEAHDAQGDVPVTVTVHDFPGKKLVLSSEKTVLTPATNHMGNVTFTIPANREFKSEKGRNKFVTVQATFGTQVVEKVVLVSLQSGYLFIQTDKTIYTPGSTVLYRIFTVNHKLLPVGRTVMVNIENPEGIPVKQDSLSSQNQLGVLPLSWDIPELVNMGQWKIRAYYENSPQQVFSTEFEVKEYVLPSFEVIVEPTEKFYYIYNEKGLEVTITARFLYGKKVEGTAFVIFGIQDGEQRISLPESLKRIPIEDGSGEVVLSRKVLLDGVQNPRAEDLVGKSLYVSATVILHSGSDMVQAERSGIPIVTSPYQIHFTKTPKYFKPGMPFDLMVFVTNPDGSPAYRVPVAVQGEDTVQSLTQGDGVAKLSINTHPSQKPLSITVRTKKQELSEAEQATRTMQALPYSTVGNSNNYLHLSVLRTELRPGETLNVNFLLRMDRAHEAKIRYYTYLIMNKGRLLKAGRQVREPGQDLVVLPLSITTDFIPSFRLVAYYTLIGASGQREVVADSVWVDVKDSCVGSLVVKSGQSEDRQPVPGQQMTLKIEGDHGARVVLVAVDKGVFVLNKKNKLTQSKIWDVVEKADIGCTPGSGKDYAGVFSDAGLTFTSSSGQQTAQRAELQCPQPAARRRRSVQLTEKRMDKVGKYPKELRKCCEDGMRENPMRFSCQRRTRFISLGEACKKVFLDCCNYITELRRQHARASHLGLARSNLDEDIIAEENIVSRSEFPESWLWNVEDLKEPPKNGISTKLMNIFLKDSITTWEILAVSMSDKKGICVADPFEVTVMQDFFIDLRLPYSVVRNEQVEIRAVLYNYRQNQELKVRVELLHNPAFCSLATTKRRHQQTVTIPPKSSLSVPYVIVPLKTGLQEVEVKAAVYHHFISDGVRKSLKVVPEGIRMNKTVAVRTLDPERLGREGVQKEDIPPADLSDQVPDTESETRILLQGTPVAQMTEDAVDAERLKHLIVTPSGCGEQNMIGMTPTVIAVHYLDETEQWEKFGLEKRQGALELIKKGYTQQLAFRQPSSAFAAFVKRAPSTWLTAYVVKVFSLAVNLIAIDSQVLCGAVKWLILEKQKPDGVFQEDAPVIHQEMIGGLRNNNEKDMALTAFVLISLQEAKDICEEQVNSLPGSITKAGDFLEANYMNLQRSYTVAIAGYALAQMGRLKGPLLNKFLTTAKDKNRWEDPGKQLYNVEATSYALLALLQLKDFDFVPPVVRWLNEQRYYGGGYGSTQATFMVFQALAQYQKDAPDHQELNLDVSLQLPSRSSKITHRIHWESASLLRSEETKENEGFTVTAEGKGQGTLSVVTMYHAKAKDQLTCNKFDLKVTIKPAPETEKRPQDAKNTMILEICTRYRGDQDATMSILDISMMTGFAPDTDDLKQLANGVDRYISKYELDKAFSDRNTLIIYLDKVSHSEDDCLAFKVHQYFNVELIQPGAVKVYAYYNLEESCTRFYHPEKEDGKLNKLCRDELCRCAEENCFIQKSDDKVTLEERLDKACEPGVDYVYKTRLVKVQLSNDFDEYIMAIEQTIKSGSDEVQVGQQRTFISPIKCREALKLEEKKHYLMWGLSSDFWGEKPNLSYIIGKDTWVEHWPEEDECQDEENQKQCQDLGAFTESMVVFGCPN

| Binder | inhibition of hemolysis IC50 [1] | CP hemolysis IC50 [2] | Kd [3] |
| --- | --- | --- | --- |
| Ac-ICIWQDWGAHSCT-NH2 (disulfide 2-12; SMILES CC[C@H](C)[C@H](NC(C)=O)C(=O)N[C@H]1CSSC[C@@H](C(=O)N[C@H](C(N)=O)[C@@H](C)O)NC(=O)[C@H](CO)NC(=O)[C@H](Cc2c[nH]cn2)NC(=O)[C@H](C)NC(=O)CNC(=O)[C@H](Cc2c[nH]c3ccccc23)NC(=O)[C@H](CC(=O)O)NC(=O)[C@H](CCC(N)=O)NC(=O)[C@H](Cc2c[nH]c3ccccc23)NC(=O)[C@H]([C@@H](C)CC)NC1=O) [Compound 19] | < 250 nM | 140 nM |  |
| Ac-EGSAICVWQDWGEHRC[Sar]E-NH2 (disulfide 6-16; SMILES CC[C@H](C)[C@H](NC(=O)[C@H](C)NC(=O)[C@H](CO)NC(=O)CNC(=O)[C@H](CCC(=O)O)NC(C)=O)C(=O)N[C@H]1CSSC[C@@H](C(=O)N(C)CC(=O)N[C@@H](CCC(=O)O)C(N)=O)NC(=O)[C@H](CCCNC(=N)N)NC(=O)[C@H](Cc2c[nH]cn2)NC(=O)[C@H](CCC(=O)O)NC(=O)CNC(=O)[C@H](Cc2c[nH]c3ccccc23)NC(=O)[C@H](CC(=O)O)NC(=O)[C@H](CCC(N)=O)NC(=O)[C@H](Cc2c[nH]c3ccccc23)NC(=O)[C@H](C(C)C)NC1=O) [Compound H] |  | 330 nM |  |
| Ac-ICIWQDWGSHRCT-NH2 (disulfide 2-12; SMILES CC[C@H](C)[C@H](NC(C)=O)C(=O)N[C@H]1CSSC[C@@H](C(=O)N[C@H](C(N)=O)[C@@H](C)O)NC(=O)[C@H](CCCNC(=N)N)NC(=O)[C@H](Cc2c[nH]cn2)NC(=O)[C@H](CO)NC(=O)CNC(=O)[C@H](Cc2c[nH]c3ccccc23)NC(=O)[C@H](CC(=O)O)NC(=O)[C@H](CCC(N)=O)NC(=O)[C@H](Cc2c[nH]c3ccccc23)NC(=O)[C@H]([C@@H](C)CC)NC1=O) [Compound 6] | < 250 nM | 140 nM |  |
| Ac-ICVWQDWGEHRCTEGE-NH2 (disulfide 2-12; SMILES CC[C@H](C)[C@H](NC(C)=O)C(=O)N[C@H]1CSSC[C@@H](C(=O)N[C@H](C(=O)N[C@@H](CCC(=O)O)C(=O)NCC(=O)N[C@@H](CCC(=O)O)C(N)=O)[C@@H](C)O)NC(=O)[C@H](CCCNC(=N)N)NC(=O)[C@H](Cc2c[nH]cn2)NC(=O)[C@H](CCC(=O)O)NC(=O)CNC(=O)[C@H](Cc2c[nH]c3ccccc23)NC(=O)[C@H](CC(=O)O)NC(=O)[C@H](CCC(N)=O)NC(=O)[C@H](Cc2c[nH]c3ccccc23)NC(=O)[C@H](C(C)C)NC1=O) [Compound J] |  | 240 nM |  |
| Ac-EGSAICIWQDWGEHRC[Sar]E-NH2 (disulfide 6-16; SMILES CC[C@H](C)[C@H](NC(=O)[C@H](C)NC(=O)[C@H](CO)NC(=O)CNC(=O)[C@H](CCC(=O)O)NC(C)=O)C(=O)N[C@H]1CSSC[C@@H](C(=O)N(C)CC(=O)N[C@@H](CCC(=O)O)C(N)=O)NC(=O)[C@H](CCCNC(=N)N)NC(=O)[C@H](Cc2c[nH]cn2)NC(=O)[C@H](CCC(=O)O)NC(=O)CNC(=O)[C@H](Cc2c[nH]c3ccccc23)NC(=O)[C@H](CC(=O)O)NC(=O)[C@H](CCC(N)=O)NC(=O)[C@H](Cc2c[nH]c3ccccc23)NC(=O)[C@H]([C@@H](C)CC)NC1=O) [Compound 28] | < 100 nM | 88 nM | 44 nM |
| Ac-ICIWQDWGEHSCT-NH2 (disulfide 2-12; SMILES CC[C@H](C)[C@H](NC(C)=O)C(=O)N[C@H]1CSSC[C@@H](C(=O)N[C@H](C(N)=O)[C@@H](C)O)NC(=O)[C@H](CO)NC(=O)[C@H](Cc2c[nH]cn2)NC(=O)[C@H](CCC(=O)O)NC(=O)CNC(=O)[C@H](Cc2c[nH]c3ccccc23)NC(=O)[C@H](CC(=O)O)NC(=O)[C@H](CCC(N)=O)NC(=O)[C@H](Cc2c[nH]c3ccccc23)NC(=O)[C@H]([C@@H](C)CC)NC1=O) [Compound 20] | < 100 nM | 59 nM | 37 nM |
| Ac-ICIWQDWGEHRCTEGE-NH2 (disulfide 2-12; SMILES CC[C@H](C)[C@H](NC(C)=O)C(=O)N[C@H]1CSSC[C@@H](C(=O)N[C@H](C(=O)N[C@@H](CCC(=O)O)C(=O)NCC(=O)N[C@@H](CCC(=O)O)C(N)=O)[C@@H](C)O)NC(=O)[C@H](CCCNC(=N)N)NC(=O)[C@H](Cc2c[nH]cn2)NC(=O)[C@H](CCC(=O)O)NC(=O)CNC(=O)[C@H](Cc2c[nH]c3ccccc23)NC(=O)[C@H](CC(=O)O)NC(=O)[C@H](CCC(N)=O)NC(=O)[C@H](Cc2c[nH]c3ccccc23)NC(=O)[C@H]([C@@H](C)CC)NC1=O, also called Comp No 24) [Compound 24] | < 100 nM | 90 nM | 28 nM |
| Ac-ESSAICIWQDWGEHRCT-NH2 (disulfide 6-16; SMILES CC[C@H](C)[C@H](NC(=O)[C@H](C)NC(=O)[C@H](CO)NC(=O)[C@H](CO)NC(=O)[C@H](CCC(=O)O)NC(C)=O)C(=O)N[C@H]1CSSC[C@@H](C(=O)N[C@H](C(N)=O)[C@@H](C)O)NC(=O)[C@H](CCCNC(=N)N)NC(=O)[C@H](Cc2c[nH]cn2)NC(=O)[C@H](CCC(=O)O)NC(=O)CNC(=O)[C@H](Cc2c[nH]c3ccccc23)NC(=O)[C@H](CC(=O)O)NC(=O)[C@H](CCC(N)=O)NC(=O)[C@H](Cc2c[nH]c3ccccc23)NC(=O)[C@H]([C@@H](C)CC)NC1=O) [Compound 3] | < 100 nM | 69 nM |  |
| Ac-ICVWQDWGEHSCT-NH2 (disulfide 2-12; SMILES CC[C@H](C)[C@H](NC(C)=O)C(=O)N[C@H]1CSSC[C@@H](C(=O)N[C@H](C(N)=O)[C@@H](C)O)NC(=O)[C@H](CO)NC(=O)[C@H](Cc2c[nH]cn2)NC(=O)[C@H](CCC(=O)O)NC(=O)CNC(=O)[C@H](Cc2c[nH]c3ccccc23)NC(=O)[C@H](CC(=O)O)NC(=O)[C@H](CCC(N)=O)NC(=O)[C@H](Cc2c[nH]c3ccccc23)NC(=O)[C@H](C(C)C)NC1=O) [Compound F] |  | 540 nM |  |
